Measured values taken from patent US20200270352A1.

What was measured:
[1] = molecular target: soluble recombinant human IGF-1R hetero-tetramer (2 α chains and the extracellular domains of 2 β chains) with C-terminal 10-His tag (R&D Systems 305-GR-50) (human) (UniProt P08069); experiment: SPR, Ln(2)/koff
[2] = molecular target: soluble recombinant human IGF-1R hetero-tetramer (2 α chains and the extracellular domains of 2 β chains) with C-terminal 10-His tag (R&D Systems 305-GR-50) (human) (UniProt P08069); experiment: SPR Biacore X100, His-captured h-IGF-1R (about 600 RU), mean of 4 experiments

B1: humanized antibody hz208F2 VH3/VL3 (hz208F2 H026/L024) (antibody, human IgG1, kappa, V domains shown)
VH: QVQLVQSGAEVKKPGASVKMSCKASGYTFTSYYIYWVKQAPGQGLEWLGWIWPGDGSTKYNEKFQGRVTLTADKSSNTAYMFLSSLRSEDTAVYFCASPMITPNYAMDYWGQGTLVTVSS
VL: DIQMTQSPSSLSASVGDRVTISCRASQDISKYLNWYQQKPGKAPKLLIYYTSRLHSGVPSRFSGRGSGTDYSLTISNLQPEDFATYFCQQGSTLPYTFGGGTKVEIKR
Work on B1 yielded a half-life of the complex [1] of 2 to 3 h and a Kd [2] of 60 pM.
